Measurements published in US11549124B2 (priority 2017, dated 2023).

How the values were obtained:
[1] = test system: wheat TaPAPhy phytase (EC 3.1.3.26); experiment: Residual phytase activity after treatment with protease at different phytase:protease ratios; conditions: phytase: protease ratio of 1:20
Excerpt: Values are mean of 3 independent technical replicates, and error bars represent means+±sd of replicates.

[2] = biological target: Aspergillus ficuum phytase (Aspergillus niger, UniProt P34752)
[3] = test system: phytases in crude extract from F. graminearum 7775; type: biochemical
[4] = test system: phytases in crude extract from F. culmorum 8984; type: biochemical
[5] = test system: TRI4, TRI5, TRI6 genes of F. graminearum JCM9873; type: cell-based
F. graminearum JCM9873 = type: cell-based

Sequence of Aspergillus ficuum phytase (P34752 24-467): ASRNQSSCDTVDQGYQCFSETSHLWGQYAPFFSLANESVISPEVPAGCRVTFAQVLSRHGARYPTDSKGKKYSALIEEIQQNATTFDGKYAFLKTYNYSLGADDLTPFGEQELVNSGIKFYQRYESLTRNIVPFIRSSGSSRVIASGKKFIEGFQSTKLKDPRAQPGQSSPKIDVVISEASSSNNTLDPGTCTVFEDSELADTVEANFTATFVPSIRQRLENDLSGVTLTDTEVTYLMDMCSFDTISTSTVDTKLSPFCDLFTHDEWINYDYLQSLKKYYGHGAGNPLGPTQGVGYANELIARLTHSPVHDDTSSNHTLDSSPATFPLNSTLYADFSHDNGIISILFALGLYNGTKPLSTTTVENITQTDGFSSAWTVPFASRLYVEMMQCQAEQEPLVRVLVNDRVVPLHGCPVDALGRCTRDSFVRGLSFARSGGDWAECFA

pepsin
phytase activity after exposure to protease [1]: unaffected

B1: HvNEP-1 (protein)
chain: MAMAIMNTLQCILFLMALIMTHQIPRATADADTPKVAMASSGAGSSFRLAAHHDHALSRSDDGFLHVQSRLDNLLPSEANVTTLRPPVASPLDMAFSVVVGLGSGKGRHDYNLKLDASGSLTWVQCKPCNPKQPQRGPLFDPKASSTFQQVAGTSQICHPPYPMEPAGQQCAFHLSGMGGMSVHGYVAMENLTMGPEAMKEFVFGCSHSTGHFNSHGTFAGVAAMGKMPTSLVMQVAARGQTRFSYCLFSGGASRHGFLRFGADVPSRSGLRTTKILPALDAHESQYYVSLVGISLDAKRLTGVRPEMFARQRGGEGGCVVDPGTPLTVLVREAYRVVEDAVWSDLRRNKAERVQREGYGLCVRKTAEIKRHLQSLSLHFAEETARLVVKPEQLFVAVESRLHGAALCLAMRPGERTVIGALQQVDTRFVYDLKDAKLSFASEPCSQDTAGVD
modifications: Hordeum vulgare
pH of peak activity for inhibiting A. ficuum phytase ([2]; 5 μg HvNEP-1, 2.5 U/ml phytase, 2 mM sodium phytate, 1 h, 37° C., pH 2.0 to 8.0): 5.0 | temperature of peak activity for inhibiting A. ficuum phytase ([2]; 100 mM acetate buffer pH 5.0, 1 h): 40 °C | inhibition of phytases in crude extract [3]: strongly inhibited | inhibition of phytases in crude extract [4]: strongly inhibited | expression of TRI4 gene [5]: suppressed | expression of TRI5 gene [5]: suppressed | expression of TRI6 gene [5]: suppressed | 15-ADON production by F. graminearum (F. graminearum JCM9873): not detectable | growth (biomass accumulation) of fungal culture (F. graminearum JCM9873): strongly inhibited | toxin production of fungal culture (F. graminearum JCM9873): strongly inhibited
